Data on five molecules can be found in PMC3079244 (Biochemistry, 2011).

One data set has as its target TylM1 (Streptomyces fradiae, UniProt P95748). In words: X-ray crystal structure, […] Å. Type of data set: binding. The following applies: pH 7.0.
Data set [1] deals with the molecule itself. Kind of data set: crystal structure.
Data set [2] deals with the molecule itself. Kind of data set: crystal structure. This is another data set of the same source.

As to `C[S+](CC[C@H](N)C(=O)O)C[C@H]1O[C@@H](n2cnc3c(N)ncnc32)[C@H](O)[C@@H]1O` (some centres unmarked) [SAM], the “X-ray crystal structure, 1.35 Å” value on TylM1 (ternary complex with dTDP-phenol, methyl donor site) was “The SAM cofactor abuts the first three β-strands of the N-terminal domain”.

In the case of `Cc1cn([C@H]2C[C@H](O)[C@@H](COP(=O)(O)OP(=O)(O)Oc3ccccc3)O2)c(=O)[nH]c1=O` [dTDP-phenol], the “X-ray crystal structure, 1.35 Å” value at TylM1 (ternary complex with SAM, sugar-nucleotide site) is “a close-up view of the binding pocket for dTDP-phenol is presented”.

B1: TylM1 from Streptomyces fradiae (N,N-dimethyltransferase), wild type (enzyme, UniProt P95748 1-255, looked up)
chain: MAHSSATAGPQADYSGEIAELYDLVHQGKGKDYHREAADLAALVRRHSPKAASLLDVACGTGMHLRHLADSFGTVEGLELSADMLAIARRRNPDAVLHHGDMRDFSLGRRFSAVTCMFSSIGHLAGQAELDAALERFAAHVLPDGVVVVEPWWFPENFTPGYVAAGTVEAGGTTVTRVSHSSREGEATRIEVHYLVAGPDRGITHHEESHRITLFTREQYERAFTAAGLSVEFMPGGPSGRGLFTGLPGAKGETR
A word on the stoichiometry N: it is a count of units in the complex or per binding partner. As to B1, the “stoichiometry N” value in “crystal structure [1]” worked out at 2.

B2: TylM1 H123N mutant protein (enzyme, Streptomyces fradiae, UniProt P95748 1-255, looked up)
chain: MAHSSATAGPQADYSGEIAELYDLVHQGKGKDYHREAADLAALVRRHSPKAASLLDVACGTGMHLRHLADSFGTVEGLELSADMLAIARRRNPDAVLHHGDMRDFSLGRRFSAVTCMFSSIGNLAGQAELDAALERFAAHVLPDGVVVVEPWWFPENFTPGYVAAGTVEAGGTTVTRVSHSSREGEATRIEVHYLVAGPDRGITHHEESHRITLFTREQYERAFTAAGLSVEFMPGGPSGRGLFTGLPGAKGETR
As to B2, the binding result in the data set “crystal structure [2]” was “binds”.

B3: TylM1 H123A mutant protein (enzyme, Streptomyces fradiae, UniProt P95748 1-255, looked up)
chain: MAHSSATAGPQADYSGEIAELYDLVHQGKGKDYHREAADLAALVRRHSPKAASLLDVACGTGMHLRHLADSFGTVEGLELSADMLAIARRRNPDAVLHHGDMRDFSLGRRFSAVTCMFSSIGALAGQAELDAALERFAAHVLPDGVVVVEPWWFPENFTPGYVAAGTVEAGGTTVTRVSHSSREGEATRIEVHYLVAGPDRGITHHEESHRITLFTREQYERAFTAAGLSVEFMPGGPSGRGLFTGLPGAKGETR
For B3, in “crystal structure [2]”, the binding result is recorded as “binds”.
